Experimental data published in patent publication US20230167169A1 (ATRECA, published 2023).

Molecular target: T1, (NANP)6 (Plasmodium falciparum, biotinylated for the BLI assay (site not stated))
T1 construct: Used in both the BLI and SPR assays
T1 peptide: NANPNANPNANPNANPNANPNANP
Assay: BLI; biotinylated target on streptavidin sensor; antibody at 5 µg/mL

B1: AB-000224 (antibody, V domains shown)
VH: EVQLVESGGGLVQPGRSLRLPCTASGFSFGDHAMSWVRQAPGKGLEWVGFIRKTTYGATTHYAAAVRGRFTISRDDSKSIVYLQMNSLKTEDTAVYFCTRVQLDYGPGYQYYGMDVWGQGTTVTVSS
VL: ESVLTQPPSVSGAPGQRVTISCTGMNSNIGAGYDVYWYQQLPGRAPKLLIYGNSNRPSGVPDRFSGSRSGTSASLAITGLQAEDEADYYCQSYDTSLNGWAFGGGTKLTVLG
Question: For B1, which kon is on record?
Answer: 275000 M⁻¹ s⁻¹
